Source: patent publication US20250340654A1 (INTERVET, published 2025)

T1: Canine IL-31RA ECD-10His (canine, biotin-labeled in the Octet assay (site not stated))
T1 construct: The ELISA and Octet protocols say only 'IL-31RA' or 'canine IL-31RA'; also called cIL-31RA; canine IL-31 receptor alpha extracellular domain, HIS-tagged
T1 chain: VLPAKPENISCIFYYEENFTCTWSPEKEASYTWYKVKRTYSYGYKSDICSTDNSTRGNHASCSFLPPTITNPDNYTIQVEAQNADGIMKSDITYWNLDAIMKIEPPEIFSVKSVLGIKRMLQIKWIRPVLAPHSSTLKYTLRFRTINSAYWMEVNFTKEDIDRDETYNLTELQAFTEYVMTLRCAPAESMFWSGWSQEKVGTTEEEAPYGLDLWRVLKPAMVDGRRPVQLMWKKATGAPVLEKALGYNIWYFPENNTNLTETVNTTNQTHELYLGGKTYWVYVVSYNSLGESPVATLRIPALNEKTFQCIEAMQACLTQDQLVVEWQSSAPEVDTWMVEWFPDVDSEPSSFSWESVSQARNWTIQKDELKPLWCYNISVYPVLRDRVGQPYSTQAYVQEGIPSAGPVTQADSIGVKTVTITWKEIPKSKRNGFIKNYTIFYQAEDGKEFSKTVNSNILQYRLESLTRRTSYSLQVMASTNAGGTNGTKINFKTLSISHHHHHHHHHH

B1: c51F8VH4VL6 (antibody, V domains shown)
VH: EVQLVQSGAEVVKPGASVKVSCTASGFNIKNTFIHWVRQRPGAGLDWIGRIDPANGNTKYAPKFQGRATLTADTSTNTAYMQLSSLRAGDIAVYYCARYYYVSSYFDVWGTGTLVTVSS
VL: DIVMTQTPLSLSVSPGETASISCKASQSVTNDVTWFRQKPGQSPQLLIYSASNRYTGVPDRFSGSGSGTDFTLRISTVEADDTGVYYCQQDYSSPWTFGQGTKLEIKR
notes: Caninized antibody; chains tied by name to c51F8VH4-cIgGBm and c51F8VL6-cCK; also called c51F8VH4L6
B2: c51F8VH4VL7 (antibody, V domains shown)
VH: EVQLVQSGAEVVKPGASVKVSCTASGFNIKNTFIHWVRQRPGAGLDWIGRIDPANGNTKYAPKFQGRATLTADTSTNTAYMQLSSLRAGDIAVYYCARYYYVSSYFDVWGTGTLVTVSS
VL: DIVMTQTPLSLSVSPGETASISCKASQSVTNDVTWFRQKPGQSPKLLIYSASNRYTGVPDRFSGSGSGTDFTLRISTVEADDTGVYYCQQDYSSPWTFGQGTKLEIKR
notes: Caninized antibody; chains tied by name to c51F8VH4-cIgGBm and c51F8VL7-cCK; also called c51F8VH4L7
B3: c218D9VH3VL2 (antibody, V domains shown)
VH: EVTLQESGPGLVKPSQTLSLTCSFSGFSLSTFGRGVGWIRQRPGRGLEWMGHIWWDDDKYYNPALKSRLSITKDTAKNQFSLQLSSMTTEDTAVYYCARIAGGLRRAPYAMDSWGQGTLVTVSS
VL: DIVMTQTPLSLSVSPGETASISCRASENIYSSLAWFRQKPGQSPQLLIYAATNLADGVPDRFSGSGSGTDFTLRISRVEADDTGVYYCQHFRDTPPTFGQGTKLEIKR
notes: Caninized antibody; chains tied by name to c218D9VH3-cIgGBm and c218D9VL2-cCK; also called c218D9VH3L2
B4: c218D9VH4VL3 (antibody, V domains shown)
VH: EVTLQESGPGLVKPSQTLSLTCSFSGFSLSTFGRGVGWIRQRPGRGLEWMGHIWWDDDKYYNPALKSRLSITKDTAKNQVFLQLSSMTTEDTAVYYCARIAGGLRRAPYAMDSWGQGTLVTVSS
VL: DIVMTQTPLSLSVSPGETASISCRASENIYSSLAWFRQKPGQSPQLLVYAATNLADGVPDRFSGSGSGTDYTLRISRVEADDTGVYYCQHFRDTPPTFGQGTKLEIKR
notes: Caninized antibody; chains tied by name to c218D9VH4-cIgGBm and c218D9VL3-cCK; also called c218D9VH4L3
B5: c218D9VH3VL3 (antibody, V domains shown)
VH: EVTLQESGPGLVKPSQTLSLTCSFSGFSLSTFGRGVGWIRQRPGRGLEWMGHIWWDDDKYYNPALKSRLSITKDTAKNQFSLQLSSMTTEDTAVYYCARIAGGLRRAPYAMDSWGQGTLVTVSS
VL: DIVMTQTPLSLSVSPGETASISCRASENIYSSLAWFRQKPGQSPQLLVYAATNLADGVPDRFSGSGSGTDYTLRISRVEADDTGVYYCQHFRDTPPTFGQGTKLEIKR
notes: Caninized antibody; chains tied by name to c218D9VH3-cIgGBm and c218D9VL3-cCK; also called c218D9VH3L3
B6: c218D9VH4VL2 (antibody, V domains shown)
VH: EVTLQESGPGLVKPSQTLSLTCSFSGFSLSTFGRGVGWIRQRPGRGLEWMGHIWWDDDKYYNPALKSRLSITKDTAKNQVFLQLSSMTTEDTAVYYCARIAGGLRRAPYAMDSWGQGTLVTVSS
VL: DIVMTQTPLSLSVSPGETASISCRASENIYSSLAWFRQKPGQSPQLLIYAATNLADGVPDRFSGSGSGTDFTLRISRVEADDTGVYYCQHFRDTPPTFGQGTKLEIKR
notes: Caninized antibody; chains tied by name to c218D9VH4-cIgGBm and c218D9VL2-cCK; also called c218D9VH4L2
B7: 209G5 (antibody, V domains shown)
VH: EVQLQQSVAELVRPGASVKLSCTASGFNIKNTYMHWVKERPEQGLEWIGRIDPANGNSKYAPKFQGKATITTDTSSNTAYLQLSSLTSEDTAIYYCARYYYVSSHFDVWGTGTTVTVSS
VL: SIVMTQTPKFLLVSAGDRVTITCKASQSVTNDVTWYQQKPGQSPKLLIYYASNRYTGVPDRFTGSGYGTDFTFTISTVQAEDLAVYFCQQDYSSPFTFGSGTKLEIK
notes: Mouse monoclonal antibody from a hybridoma; also called mouse mAb 209G5
B8: 85C10 (antibody, V domains shown)
VH: EFQLQQSGPELVKPGASVKISCKASGYSFTDYSINWVKQSNGKSLEWIGVINPNYGTSSHNQKFKGKATMTVDQSSSTAYMQLNSLTSEDSAVYYCARALDDYYFYWYFDVWGIGTTVTVSS
VL: DVVMTQTPLSLPVSLGDQASISCRSSQSLVHTNGNTYLHWYLQKPGQSPKLLIYKVSNRFSGVPDRFSGSGSGTDFTLKISRVEAEDLGVYFCSQTTHVPLTFGAGTKLELK
notes: Mouse monoclonal antibody from a hybridoma; also called mouse mAb 85C10
B9: Chimeric 218D9 (antibody, V domains shown)
VH: QVTLKESGPGILQPSQTLSLTCSFSGFSLSTFGRGVGWIRQPSGKGLDWLTHIWWDDDKYYNPALKSRLTISKDTSKNQVFLKIANVDTADTATYYCARIAGGLRRAPYAMDSWGQGTSVTVSS
VL: DIQMTQSPASLSVSVGETVTITCRASENIYSSLAWYQQKQGKSPQLLVYAATNLADGVPSRFSGSGSGTQYSLKINSLQSEDSGNYYCQHFRDTPPTFGGGTKLEIK
notes: canine constant regions not specified; also called mouse-canine chimeric 218D9 antibody
B10: 218D9 (antibody, V domains shown)
VH: QVTLKESGPGILQPSQTLSLTCSFSGFSLSTFGRGVGWIRQPSGKGLDWLTHIWWDDDKYYNPALKSRLTISKDTSKNQVFLKIANVDTADTATYYCARIAGGLRRAPYAMDSWGQGTSVTVSS
VL: DIQMTQSPASLSVSVGETVTITCRASENIYSSLAWYQQKQGKSPQLLVYAATNLADGVPSRFSGSGSGTQYSLKINSLQSEDSGNYYCQHFRDTPPTFGGGTKLEIK
notes: Mouse monoclonal antibody from a hybridoma; also called mouse mAb 218D9

Key:
[1] = target: T1, Canine IL-31RA ECD-10His; test: BLI (Octet), biotin-labeled canine IL-31RA on SA biosensors
Experimental: (§1) All kinetics measurements were performed by Octet HTX using SA biosensors and Data Acquisition 12.0 software. A biotin-labeled antigen (canine IL-31RA) was loaded onto the pre-rehydrated SA biosensors for 120s at a concentration of 1 μg/mL. Next, the biosensors were placed into Octet Kinetics Buffer (PBS+0.02% Tween 20, 0.1% BSA) for the blocking phase for 120s. Then, for the association phase, antigen loaded biosensors were placed into 2-fold serial dilutions from 100 nM down to 3.13 nM of anti-IL-31RA monoclonal antibody in Octet Kinetics Buffer for 300s. The last well was buffer alone and that sensor was used for reference sensor subtraction. Finally, the biosensors were placed into Octet Kinetics Buffer for the dissociation phase for 300s. Analysis was performed using Data Analysis 12.0 software and curves were fitted using a 1:1 binding model.
Two of the top blocking antibodies: 51F8 and 218D9, had KDs of about 0.2 nM and about 0.07 nM respectively (see, Table 5B below).

[2] = target: T1, Canine IL-31RA ECD-10His; test: ELISA on coated canine IL-31RA, anti-canine IgG Fc-HRP (Example 11), the unit is that of the x axis 'Ab Log Conc. (ng/mL)'
Experimental: 1. Coat 200 ng/well of IL-31RA on an immunoplate and incubate the plate at 4° C. overnight. [0257] 2. Wash the plate 3 times with phosphate buffered saline (PBS) containing 0.05% Tween 20 (PBST). […] 3. Block the plate with 0.5% bovine serum albumin (BSA) in PBS for 45-60 min at room temperature. [0259] 4. Wash the plate 3 times with PBST. [0260] 5. Three-fold dilute the caninized antibody in each column or row of dilution plate starting at 0.3 μg/mL. [0261] 6. Transfer the diluted caninized antibody into each column or row of the immunoplate, and incubate the plate for 45-60 min at room temperature. [0262] 7. Wash the plate 3 times with PBST. [0263] 8. Add 1:4000 diluted horseradish peroxidase labeled anti-canine IgG Fc into each well of the plate, and then incubate the plate for 45-60 min at room temperature. [0264] 9. Wash the plate 3 times with PBST. [0265] 10. Add 3,3′,5,5′-tetramethylbenzidine (TMB) Substrate into each well of the plate, and incubate the plate for 10 to 15 min at room temperature to develop the color. [0266] 11. Add 100 μL 1.5 M phosphoric acid into each well to stop the reaction. Read plate at 450 nm with 540 nm reference wavelength.
As depicted in FIGS. 7A-7E, the caninized antibodies were tested for their reactivity to canine IL-31RA.

[3] = target: T2, canine IL-31 receptor complex (IL-31RA and OSMR) on Ba/f3-OI cells (canine); test: cell-based or functional assay
[4] = target: T2, canine IL-31 receptor complex (IL-31RA …); test: cell-based or functional assay; remark: listed apart in the source
[5] = target: T1, Canine IL-31RA ECD-10His; test: BLI (Octet HTX), biotin-labeled canine IL-31RA on SA biosensors, 1:1 fit
Experimental: These constants reflect the binding affinity of the individual monoclonal antibodies for canine IL-31 RA.
as §1

[6] = target: T2, canine IL-31 receptor complex (IL-31RA …); test: cell-based or functional assay; remark: listed apart in the source
[7] = target: T1, Canine IL-31RA ECD-10His; test: BLI (Octet); end of the range tied to 85C10 by Table 2
Experimental: as §1

Binder	Kd [1] [pM]	koff [1] [s⁻¹]	kon [1] [M⁻¹ s⁻¹]	EC50 [2] [ng/mL]	IC50: inhibition of IL-31 mediated STAT-3 phosphorylation in Ba/f3-OI cells (AlphaLISA p-STAT3), the unit is that of the x axis 'Antibody Log Conc. (nM)' [3] [nM]	IC50, inhibition of IL-31 mediated STAT-3 phosphorylation in Ba/f3-OI cells [4] [pM]	Kd [5] [pM]	koff [5] [s⁻¹]	kon [5] [M⁻¹ s⁻¹]	IC50 (read off the curve): inhibition of IL-31 mediated STAT-3 phosphorylation in Ba/f3-OI cells [6] [ng/mL]	Kd [7] [pM]
B1	1010	0.000448	445000	8.31	–	–	–	–	–	–	–
B2	1230	0.000512	416000	11.3	–	–	–	–	–	–	–
B3	528	0.000338	641000	4.29	226	~230000	–	–	–	–	–
B4	44.7	2.69e-05	601000	3.58	2.5	~2900	–	–	–	–	–
B5	41.6	2.75e-05	661000	3.22	2.97	~2500	–	–	–	–	–
B6	305	0.000165	541000	4.1	8.27	~8300	–	–	–	–	–
B7	–	–	–	–	–	–	131	4.87e-05	370000	~2000	–
B8	–	–	–	–	–	–	851	0.000363	427000	–	850
B9	69.8	4.63e-05	664000	3.15	2.24	~2200	–	–	–	–	–
B10	–	–	–	–	–	–	69.8	4.63e-05	664000	~2000	–
